Laboratory results from patent US12168677B2, “Proteins for the treatment of epithelial barrier function disorders” (Genevive, Inc., priority 2017, dated 2024).

Columns and labels:
[1] = system: HCT8 enterocytes and HT29-MTX goblet cells; test: Co-culture trans-epithelial electrical resistance (TEER) assay with heat killed E. coli challenge; format: cell-based, human; conditions: TEER after 24 hours
Protocol: Assays were performed as described below in trans-well plates where co-cultures of multiple cell types were performed utilizing a permeable membrane to separate cells. In the apical (top) chamber, human colonic epithelial cells, consisting of a mixture of enterocytes and goblet cells, were cultured until cells obtained tight junction formation and barrier function capacity as assessed by measurement of trans-epithelial electrical resistance (TEER). In the basolateral chamber, monocytes were cultured separately. Epithelial cells were primed with inflammatory cytokines. The assays measured the effect of a therapeutic protein, i.e., SG-15, on epithelial barrier function, wound healing, and production of cytokines. Cell culture. The HCT8 human enterocyte cell line (ATCC Cat. No. CCL-244) was maintained in RPMI-1640 medium supplemented with 10% fetal bovine serum, 100 IU/ml penicillin, 100 μg/ml streptomycin, 10 μg/ml gentamicin and 0.25 μg/ml amphotericin (cRPMI). HT29-MTX human goblet cells (Sigma-Aldrich (St. Louis, MO; Cat. No. 12040401) were maintained in DMEM medium with 10% fetal bovine serum, 100 IU/ml penicillin, 100 μg/ml streptomycin, 10 μg/ml gentamicin and 0.25 μg/ml amphotericin (cDMEM). Epithelial cells were passaged by trypsinization and were used between 5 and 15 passages following thawing from liquid nitrogen stocks. U937 monocytes (ATCC Cat. No. 700928) were maintained in cRPMI medium as a suspension culture, and split by dilution as needed to maintain cells between 5×10^5 and 2×10^6 cells/ml. U937 cells were used up to passage 18 following thawing from liquid nitrogen stocks. Epithelial cell culture. A mixture of HCT8 enterocytes and HT29-MTX goblet cells were plated at a 9:1 ratio, respectively, in the apical chamber of the transwell plate as described previously (Berget et al., 2017, Int J Mol Sci, 18:1573; Beduneau et al., 2014, Eur J Pharm Biopharm, 87:290-298). A total of 10^5 cells were plated in each well (9×10^4 HCT8 cells and 1×10^4 HT29-MTX cells per well). Epithelial cells were trypsinized from culture flasks and viable cells determined by trypan blue counting. The correct volumes of each cell type were combined in a single tube and centrifuged. The cell pellet was resuspended in cRPMI and added to the apical chamber of the transwell plate. […] Monocyte culture. On day 6 of epithelial cell culture 2×10^5 cells/well U937 monocytes were plated into a 96 well receiver plate. […] Co-culture assay. […] After 24 hours fresh cRPMI was added to the epithelial cell culture plate. Trans-epithelial electrical resistance (TEER) readings were measured after the IFN-γ treatment and were used as the pre-treatment TEER values. SG-15 was then added to the apical chamber of the transwell plate at a final concentration of 1 μg/ml (40 nM). The myosin light chain kinase (MLCK) inhibitor peptide 18 (BioTechne, Minneapolis, MN) was used at 50 nM as a positive control to prevent inflammation induced barrier disruption (Zolotarevskky et al., 202, Gastroenterology, 123:163-172). The bacterially derived molecule staurosporine was used at 100 nM as a negative control to induce apoptosis and exacerbate barrier disruption (Antonsson and Persson, 2009, Anticancer Res, 29:2893-2898). […] Following pre-incubation with test compounds the transwell insert containing the enterocytes was transferred on top of the receiver plate containing U937 monocytes. Heat killed E. coli (HK E. coli) (bacteria heated to 80° C. for 40 minutes) was then added to both the apical and basolateral chambers and a multiplicity of infection (MOI) of 10. […] The TEER assays were performed with recombinantly expressed mature (lacking a signal peptide) SG-15 protein such as that described in Example 1A above. Data analysis. Raw electrical resistance values in ohms (Ω) were converted to ohms per square centimeter (Ωcm^2) based on the surface area of the transwell insert (0.143 cm^2). […]

IL-23 = IL-23 production by monocytes in co-culture TEER assay (Luminex); format: cell-based, human; conditions: for IL-23 production normalized to HK E. coli only (set to 1.0): pre-incubated 6 hours prior to HK E. coli, basolateral supernatant
Protocol: Production of the cytokines TNF-α, IL-23, and IL-10 by monocytes was measured in the tissue culture supernatant from the basolateral chamber of the co-culture TEER assay performed in Example 1B. Following TEER readings, the supernatants were centrifuged at 10,000 g for 5 minutes at 4° C. to remove cell debris. Luminex analysis was performed according to the manufacturer's instructions (Magpix instrument and xPonent software version 4.2; Luminex Corporation (Austin, TX)). Luminex analysis was performed to determine the […] concentration of TNF-α and IL-23 produced by monocytes. Luminex analysis utilizes a bead-based system for quantification of multiple cytokines from a single sample. Like an ELISA, Luminex beads are coated with a capture antibody, and incubation with samples allows the target to bind to the capture antibody. Beads are washed and incubated with a fluorescently labeled detection antibody for quantification of bound target. Cytometric analysis is used to differentiate bead populations, which are loaded with differential fluorescent dyes, and to quantify cytokine levels by measuring detection antibody signal. TNF-α, IL-23, and IL-10 production in untreated cells and cells pre-incubated with SG-15 for 6 hours prior to HK E. coli treatment was normalized to pg/ml concentrations elicited by HK E. coli only, which was set to 1.0. […] The graphs in FIGS. 2A, 2B and 2C each represent data pooled from an individual experiment (n=3).

DSS model: body weight = format: in vivo, C57BL/6 mice; conditions: 50 nmoles/kg i.p. b.i.d.; 2.5% DSS 6 days; percent change from day 0
Protocol: Eight-week old C57BL/6 mice were housed 5 animals were cage and given food and water ad libitum for 7 days. Following the 7-day acclimation period, treatments were initiated concurrently with addition of 2.5% DSS to the drinking water. […] The mice were treated with 2.5% dextran sodium sulfate (DSS) in their drinking water for 6 days. Treatments were continued with SG-15 or […]-GLP2 twice a day (b.i.d.) in the morning and evening (every 8 and 16 hr) with i.p. injections at 50 nmoles/kg. Fresh 2.5% DSS drinking water was prepared every 2 days. Body weight was measured daily from mice included in the DSS model described in Example 1E. Percent change from starting weight on day 0 was determined for each mouse. […] Weight loss in mice treated with SG-15 at day 6 was similar to weight loss observed with […]-GLP2. The graphs in FIG. 6 represent data pooled from the 2 individual experiments (n=20).

[2] = protein 1 μg/ml (40 nM) added 30 minutes before HK E. coli
[3] = protein 1 μg/ml (40 nM) pre-incubated 6 hours before HK E. coli

Molecule | TEER of epithelial cell barrier (percent of untreated samples) [1, 2] | TEER of epithelial cell barrier (percent of untreated samples) [1, 3] | IL-23 production compared with control cells treated with media only (IL-23; cells treated with SG-15 and HK E. coli) | IL-23 production normalized to HK E. coli only (set to 1.0) (IL-23) | Body weight compared to vehicle-treated DSS mice (DSS model: body weight)
SG-15: 400 amino acid protein (SEQ ID NO:1) encoded by the genome of Eubacterium eligens (protein, listed as Eubacterium eligens) EYTEIRTASELVEAAKSASGNYKLMTDIDMTGVEWTPWDFSGTFDGNGHSILNLSVKTVSKKTMKTYDGNRKEYKTYGAGFFGVLTGAKVTGLDIYGARIEITTTEPCFAAPIAGLADDSDISDCIIKDTYVSLTDSAKMWGTGGIAGFGSGNLDNITTDVTLVCVDTDAAVRDEQFMGGAYAAGFLNIRNCSITIDGYDSDHGYVHDGGLVGMYMVYPLELSKTYQGEVLNNKVKGMITFFEDNTDRRAYCQANMGEVMNWTYAYSGFTSDFKRNETYDYSVTLLPEMCSNPSYTDVVTEATASDFGYTTHTCSTCGYTYSDTYTIHEHKVDSYSVVKEAASTDKKDGIEAGTCSLCNQTVYREYAANVVTDDNTQATDNKASGTAVKKGMKESTAVFA | 71.4% | 68.5% | no significant difference | 0.57 | significantly improved body weight
SG-16: 119 amino acid protein (SEQ ID NO:9) encoded by the genome of Eubacterium eligens (protein, listed as Eubacterium eligens) MTGCSGSKEPDNKTSVDYTVVENADLPEELKKLIESKKDKVMRLTYTTKDYTYVVAGYGTRETSGYSIKVNDVYTGDNALYIDLNLIGPAAGEAVNEVETYPVIVLKMERREESVVFKM | 60.7% | about 60.0% | – | 1.06 | –
SG-17: 327 amino acid protein (SEQ ID NO:13) encoded by the genome of Eubacterium eligens (protein, listed as Eubacterium eligens) CNSKIDVKYDYNVEDYVQLGQYENISVQVDKTSIENELIESKIKQDVEDNTTYTEVDRGAIASDQILVTYTATSSGASLSGLTNTDGKTMILGTDTLGLELDELDQALYGMTPGQTKILIVDIPEDYSSDLYKGTRVVFELTMQTVAQANVPMITNAYVKEAFGYDTVEEYRQSIKESLETDINSKVENKIQEDVLSSLQDTFKISSYPDSLMEETRSRLETSIGFYADFSNLSKDEYCQKQYGLSFDDFVKKSVVQQLIMEAIVKDRNMTMREYDYKGSLDDFAADNGYSNADTFVEKFGKDKIVKAMLVQKAQDYVIEHANISYK | 72.0% | about 74.2% | – | 1.10 | did not alter body weight
SG-18: 267 amino acid protein (SEQ ID NO:19) encoded by the genome of Clostridium bartlettii sp. nov. (protein, listed as Clostridium bartlettii) EVDSSKEQATSKDEKQVVVATSVAITEILDRLGVEVSGVPQTSYELPESAKGATEIGSPMNPDMEIIKSLNPTDVICVDTLGSDFEKQFEENNINADFYNLSNVDGLKETIAALGEKFNKQDKANEILDEIKEVENKVNSNKKSDDKILVLFGAPGSVMVATDKSYIGNLVELAGGNNIFSNATSSFTQINLEEIIKLNPDKILVMTHAVPEAAKKSVEEELSKDLWKNVNAVKNNDITYLENGYFGMSANLQIVEAVEKLGDILYE | 71.0% | about 85.0% | – | 1.10 | did not alter body weight
